Target: T1, C-terminally hexa-histidine (His6)-tagged VapC10 (toxin, PIN-domain protein, slr1767) of Synechocystis sp. … (Synechocystis sp. PCC 6803, UniProt P73045 1-112)
T1 construct: also called VapC10-His6; VapC-His6; not shown: His6, C-terminal, kept
T1 sequence (looked up): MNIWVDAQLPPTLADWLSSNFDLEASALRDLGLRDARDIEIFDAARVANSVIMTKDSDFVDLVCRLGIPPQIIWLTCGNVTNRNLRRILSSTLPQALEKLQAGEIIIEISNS
Experiment: pull-down
Conditions: partners not purified

B1: VapB10 (antitoxin, COG2442-domain protein, ssr2962) of Synechocystis sp. PCC 6803 (natural protein, UniProt P73044 1-74, looked up)
chain: MNSLLSRITQTPGQCGGRPCIRGMRIRVSDILEMLAENVSTSEILEDFPDLEMADIQACLVFAARRTDFSRLTA
notes: source: E. coli BL21(DE3)(pJS653), co-expressed with VapC10-His6, in cleared lysate
- stoichiometry N: ~1 VapB10 per VapC10-His6

Source: publication PMC3834315
